Source: paper PMC5971111 (Nature structural & molecular biology, 2018)

T1: Sec5 (S. cerevisiae, UniProt P89102 1-971)
T1 sequence: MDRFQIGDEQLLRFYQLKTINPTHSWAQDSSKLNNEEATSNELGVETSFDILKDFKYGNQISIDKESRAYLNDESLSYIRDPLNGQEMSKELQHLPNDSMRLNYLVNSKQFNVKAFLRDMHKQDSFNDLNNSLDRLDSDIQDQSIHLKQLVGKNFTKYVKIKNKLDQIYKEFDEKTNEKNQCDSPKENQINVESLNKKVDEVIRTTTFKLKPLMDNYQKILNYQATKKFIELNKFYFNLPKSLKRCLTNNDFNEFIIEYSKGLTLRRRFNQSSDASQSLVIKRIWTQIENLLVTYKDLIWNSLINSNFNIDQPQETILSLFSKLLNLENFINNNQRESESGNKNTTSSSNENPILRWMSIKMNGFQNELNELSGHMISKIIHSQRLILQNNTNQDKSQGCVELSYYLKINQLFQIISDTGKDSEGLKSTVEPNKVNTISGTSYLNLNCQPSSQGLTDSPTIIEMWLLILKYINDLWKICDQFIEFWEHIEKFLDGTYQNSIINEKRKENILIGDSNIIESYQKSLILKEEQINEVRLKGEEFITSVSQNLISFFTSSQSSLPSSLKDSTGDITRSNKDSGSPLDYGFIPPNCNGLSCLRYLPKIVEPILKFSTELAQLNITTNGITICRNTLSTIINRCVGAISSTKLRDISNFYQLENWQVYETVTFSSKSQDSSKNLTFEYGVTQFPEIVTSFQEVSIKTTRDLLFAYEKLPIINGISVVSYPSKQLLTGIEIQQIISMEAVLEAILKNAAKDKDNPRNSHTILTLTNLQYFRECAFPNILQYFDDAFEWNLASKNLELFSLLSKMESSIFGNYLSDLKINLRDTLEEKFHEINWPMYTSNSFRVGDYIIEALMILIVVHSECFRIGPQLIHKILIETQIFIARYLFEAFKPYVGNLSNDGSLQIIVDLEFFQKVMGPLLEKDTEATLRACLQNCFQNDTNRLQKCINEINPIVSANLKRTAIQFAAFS

T2: Sec3 (S. cerevisiae, UniProt P33332 1-1336)
T2 sequence: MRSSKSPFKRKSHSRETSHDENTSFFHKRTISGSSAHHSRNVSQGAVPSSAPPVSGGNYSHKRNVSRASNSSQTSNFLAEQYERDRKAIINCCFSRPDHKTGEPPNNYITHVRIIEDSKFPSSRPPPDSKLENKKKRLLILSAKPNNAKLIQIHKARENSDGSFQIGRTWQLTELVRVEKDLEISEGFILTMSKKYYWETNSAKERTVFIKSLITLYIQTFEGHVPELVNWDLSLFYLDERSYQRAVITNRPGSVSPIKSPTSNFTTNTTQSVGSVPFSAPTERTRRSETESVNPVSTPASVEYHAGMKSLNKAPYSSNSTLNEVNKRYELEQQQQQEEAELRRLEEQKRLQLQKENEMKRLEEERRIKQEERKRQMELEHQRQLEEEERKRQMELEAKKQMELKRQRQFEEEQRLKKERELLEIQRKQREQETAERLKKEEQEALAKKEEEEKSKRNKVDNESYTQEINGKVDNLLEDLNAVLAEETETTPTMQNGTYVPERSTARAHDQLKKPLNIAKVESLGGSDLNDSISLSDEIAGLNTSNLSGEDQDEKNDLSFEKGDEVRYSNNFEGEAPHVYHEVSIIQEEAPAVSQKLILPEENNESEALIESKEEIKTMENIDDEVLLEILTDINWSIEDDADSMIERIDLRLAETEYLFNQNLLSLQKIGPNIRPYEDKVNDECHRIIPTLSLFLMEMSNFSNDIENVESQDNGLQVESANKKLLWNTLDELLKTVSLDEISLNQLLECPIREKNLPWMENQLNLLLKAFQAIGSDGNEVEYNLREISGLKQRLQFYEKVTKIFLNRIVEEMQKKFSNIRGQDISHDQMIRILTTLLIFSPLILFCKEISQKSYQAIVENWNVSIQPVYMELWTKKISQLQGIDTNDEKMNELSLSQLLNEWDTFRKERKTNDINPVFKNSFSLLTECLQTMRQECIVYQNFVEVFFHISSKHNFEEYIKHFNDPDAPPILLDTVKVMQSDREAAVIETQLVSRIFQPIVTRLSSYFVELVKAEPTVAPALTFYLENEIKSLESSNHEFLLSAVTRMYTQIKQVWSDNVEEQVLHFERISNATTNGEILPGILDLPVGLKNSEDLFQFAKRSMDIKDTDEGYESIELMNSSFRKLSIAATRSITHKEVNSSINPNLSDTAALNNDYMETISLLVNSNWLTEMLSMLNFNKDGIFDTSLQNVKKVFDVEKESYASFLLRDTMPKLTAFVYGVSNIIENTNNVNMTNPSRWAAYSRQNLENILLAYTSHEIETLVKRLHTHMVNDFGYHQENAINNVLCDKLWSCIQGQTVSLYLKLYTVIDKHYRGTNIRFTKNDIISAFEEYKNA

T3: Sec8 (S. cerevisiae, UniProt P32855 1-1065)
T3 sequence: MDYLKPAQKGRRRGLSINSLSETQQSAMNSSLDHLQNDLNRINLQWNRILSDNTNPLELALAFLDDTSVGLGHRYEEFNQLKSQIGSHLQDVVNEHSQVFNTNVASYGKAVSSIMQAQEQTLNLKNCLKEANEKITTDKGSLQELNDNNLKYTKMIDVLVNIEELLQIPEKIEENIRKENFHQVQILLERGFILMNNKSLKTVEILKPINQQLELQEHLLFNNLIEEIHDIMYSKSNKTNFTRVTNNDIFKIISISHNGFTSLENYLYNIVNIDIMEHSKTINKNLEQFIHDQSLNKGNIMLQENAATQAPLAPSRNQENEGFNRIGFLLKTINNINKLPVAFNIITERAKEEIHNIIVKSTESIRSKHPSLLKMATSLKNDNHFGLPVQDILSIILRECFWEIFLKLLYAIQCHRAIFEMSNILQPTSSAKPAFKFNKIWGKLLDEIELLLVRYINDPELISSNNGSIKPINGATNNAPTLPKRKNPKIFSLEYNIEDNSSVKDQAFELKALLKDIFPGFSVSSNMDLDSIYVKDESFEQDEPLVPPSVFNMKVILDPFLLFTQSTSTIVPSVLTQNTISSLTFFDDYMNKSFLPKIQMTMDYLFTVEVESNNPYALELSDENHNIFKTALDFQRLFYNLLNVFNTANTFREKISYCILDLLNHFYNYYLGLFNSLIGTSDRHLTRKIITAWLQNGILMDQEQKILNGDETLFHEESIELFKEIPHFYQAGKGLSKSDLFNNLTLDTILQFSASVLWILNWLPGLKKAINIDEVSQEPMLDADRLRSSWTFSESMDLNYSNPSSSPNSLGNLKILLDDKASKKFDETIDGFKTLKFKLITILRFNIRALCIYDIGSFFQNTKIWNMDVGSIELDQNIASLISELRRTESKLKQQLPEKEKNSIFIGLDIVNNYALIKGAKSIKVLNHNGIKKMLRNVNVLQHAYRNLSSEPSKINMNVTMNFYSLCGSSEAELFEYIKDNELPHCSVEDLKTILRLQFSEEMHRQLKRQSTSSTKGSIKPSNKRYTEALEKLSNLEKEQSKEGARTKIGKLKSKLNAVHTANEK

T4: Sec15 (S. cerevisiae, UniProt P22224 1-910)
T4 sequence: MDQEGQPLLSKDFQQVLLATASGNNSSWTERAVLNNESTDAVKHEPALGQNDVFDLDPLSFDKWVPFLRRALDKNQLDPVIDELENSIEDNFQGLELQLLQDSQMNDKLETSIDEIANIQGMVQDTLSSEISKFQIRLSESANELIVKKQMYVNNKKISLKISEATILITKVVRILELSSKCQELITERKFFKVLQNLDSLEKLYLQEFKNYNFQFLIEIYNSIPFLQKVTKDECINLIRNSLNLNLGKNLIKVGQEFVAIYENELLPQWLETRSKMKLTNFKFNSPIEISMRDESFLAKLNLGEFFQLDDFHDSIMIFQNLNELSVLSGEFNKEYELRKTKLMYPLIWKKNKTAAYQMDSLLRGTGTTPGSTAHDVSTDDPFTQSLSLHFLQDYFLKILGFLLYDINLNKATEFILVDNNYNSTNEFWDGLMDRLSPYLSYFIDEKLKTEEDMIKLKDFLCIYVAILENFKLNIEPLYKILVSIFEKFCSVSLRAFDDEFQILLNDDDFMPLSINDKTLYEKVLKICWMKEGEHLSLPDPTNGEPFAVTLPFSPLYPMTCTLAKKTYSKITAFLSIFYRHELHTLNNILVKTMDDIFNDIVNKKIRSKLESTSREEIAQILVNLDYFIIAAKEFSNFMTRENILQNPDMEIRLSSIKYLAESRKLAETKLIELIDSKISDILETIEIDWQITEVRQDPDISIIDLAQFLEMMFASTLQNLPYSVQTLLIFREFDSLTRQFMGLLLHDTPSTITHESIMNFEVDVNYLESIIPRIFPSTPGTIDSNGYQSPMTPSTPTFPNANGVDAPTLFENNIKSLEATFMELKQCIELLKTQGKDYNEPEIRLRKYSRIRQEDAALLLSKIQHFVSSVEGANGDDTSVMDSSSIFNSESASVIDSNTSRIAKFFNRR


Assays:
Assay in all cases: […]
[1] = target: T1, Sec5
[2] = target: T2, Sec3
[3] = target: T3, Sec8
[4] = target: T4, Sec15

Binder	binding result [1]	binding result [2]	binding result [3]	binding result [4]
Sec6 (natural protein) MSSDPLQQVCDLIKGDLSLERVRDIKEQLLKEKSVVEYQLNKESDKYYGEVEESLKLLNLSKNSVTSIKQQINEVNKLGNDNRFAINRYDILFRATKLYETVNTTSSIYDRIYNFVALMEHIERLLVAELAEDALETGCPHLLEIHFLLTSARDFQEQVVVMAKEATEDAQRTVMKLFSRLSGIISKFDKLLDGLTYDIVEMARAEQISLAIRLFKIYDLEEREDLRIEAIRNIIKKKEIEIEKSSIKKLPNSKNTARLQDETPKVIEYPTNKGLYQEIMSGTISTRTAPRGYKHFLINGINNSISEMFGEMREKYVGDQKFDVLDNMDWIFNELIIVKEHIANCCPPHWNIFEVYFDQYYKELHSLITDLVESEPETIIILDILAFDKTFQDTLKQDFGFTKSEVKSVIGDKEKETLFKDYLNLIVVKMTEWIGNLEKAEFDVFLERSTPPHSDSDGLLFLDGTKTCFQMFTQQVEVAAGTNQAKILVGVVERFSDLLTKRQKNWISKISEEIKKQINYNHKYDIDPESITPEDECPGGLVEYLIAVSNDQMKAADYAVAISSKYGKLVSKVYEKQITNHLEGTLDGFAEVAQCSSLGLITLMFDDLRKPYQEIFSKTWYMGSQAQQIADTLDEYLLDIKPQMNSVLFVNFIDNVIGETIIKFLTALSFEHSFKNKNNKFLEAMKRDFEIFYQLFVKVLDGNESKDTLITQNFTVMEFFMDLSCEPIDSILDIWQKYLEVYWDSRIDLLVGILKCRKDVSSSERKKIVQQATEMLHEYRRNMEANGVDREPTLMRRFVLEFEKQ	binds	binds	–	–
Sec10 (natural protein) MNSLYELDPKWKKLLKTDNFLGGLTVNEFVQELSKDHRNDVLIDANTKNLPTNEKDQDAIREAIWKQLDPKPYIRTFESTLKELKNLNEETLNKRQYFSEQVATQEVIHSENVIKLSKDLHTTLLTFDKLDDRLTNVTQVVSPLGDKLETAIKKKQNYIQSVELIRRYNDFYSMGKSDIVEQLRLSKNWKLNLKSVKLMKNLLILSSKLETSSIPKTINTKLVIEKYSEMMENELLENFNSAYRENNFTKLNEIAIILNNFNGGVNVIQSFINQHDYFIDTKQIDLENEFENVFIKNVKFKEQLIDFENHSVIIETSMQNLINDVETVIKNESKIVKRVFEEKATHVIQLFIQRVFAQKIEPRFEVLLRNSLSISNLAYVRILHGLFTLFGKFTKSLIDYFQLLEIDDSNQILSTTLEQCFADLFSHYLYDRSKYFGIEKRSLEAILVDMTSKFTVNYDKEINKRVLLDKYKEKLSTNVDAFMHSPRGNTHSRQDSTSRSKLSQFNSFLKTHLDKDHLSLNRTNTLSDSFNNSSSSTQYDVANNSSSLVNSSFTASDIDNSPNSPANYSLNDVDSMLKCVVESTARVMELIPNKAHLYILEILKIMFLGIVDSYMEIALEVAYWKICKVDINKTAGVVNLNFLKFISMSTEILDLLSISIKSIFLPLLNNSPEIKAQIIEMTNSQIQKMEILINIILQETITVISTKFSAILCKQKKKDFVPKSQELLDQDTLPAIEIVNILNLIFEQSSKFLKGKNLQTFLTLIGEELYGLLLSHYSHFQVNSIGGVVVTKDIIGYQTAIEDWGVASLIDKFATLRELANLFTVQPELLESLTKEGHLADIGRDIIQSYISNREDFNHDNFINSVKLNFR	–	binds	binds	binds
